The text below walks through data of the supplement of paper PMC9112550, “Optimization of the antimicrobial peptide Bac7 by deep mutational scanning” (BMC Biology, 2022).
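Further: peptides expressed intracellularly from a pBAD plasmid library in pooled LB shake-flask culture, induced with 0.3% L-arabinose, DNA abundance read by NGS, three biological replicates, DESeq2 with apeglm shrinkage.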

The test system of the series is Escherichia coli TOP10. Put plainly: shrunken log2 fold change of peptide-encoding DNA abundance (4.5 h post-induction vs induction); higher = less antimicrobial activity (less host growth inhibition). The conditions noted are these: time post-induction: 4.5 h; library: site-saturation at positions 5, 18, 19, 20.
For the sequence RRIRQRPPRLPRPRPRPKLPPRP, the “shrunken log2 fold change” value stood at 0.146.
In the case of RRIRDRPPRLPRPRPRPEVTPRP it was -0.000921; in that of RRIRCRPPRLPRPRPRPFVRPRP, -0.141.
In the case of RRIRPRPPRLPRPRPRPHPIPRP it was 0.0162.
In the case of RRIRDRPPRLPRPRPRPECIPRP it was 0.0163; in that of RRIRKRPPRLPRPRPRPPINPRP, -0.0392; in that of RRIRYRPPRLPRPRPRPSWIPRP, -0.341.
With RRIRWRPPRLPRPRPRPYEPPRP, the “shrunken log2 fold change” value is -0.261.
As to RRIRYRPPRLPRPRPRPYQKPRP, the “shrunken log2 fold change” value was -0.0257.
In the case of RRIRQRPPRLPRPRPRPTMRPRP it was 0.86.
In the case of RRIRARPPRLPRPRPRPAIGPRP it was 0.714; in that of RRIRCRPPRLPRPRPRPDEMPRP, -0.0197.
With RRIRYRPPRLPRPRPRPYHDPRP the figure was -0.386.
Turning to RRIRFRPPRLPRPRPRPNALPRP, the “shrunken log2 fold change” value was -0.347.
As for RRIRERPPRLPRPRPRPFKSPRP, the “shrunken log2 fold change” value is -0.0568.
With RRIRYRPPRLPRPRPRPEFYPRP the figure was -0.316; with RRIRTRPPRLPRPRPRPHNKPRP, -0.702; with RRIRPRPPRLPRPRPRPFKEPRP, -0.54.
In the case of RRIRDRPPRLPRPRPRPGYMPRP it was -0.649; in that of RRIRFRPPRLPRPRPRPFAMPRP, -0.326.
With RRIRWRPPRLPRPRPRPSYSPRP the figure was -0.705; with RRIRIRPPRLPRPRPRPECMPRP, -0.428; with RRIRFRPPRLPRPRPRPVEFPRP, -0.591.
Consider RRIRARPPRLPRPRPRPGQKPRP, for which the “shrunken log2 fold change” value was -0.0844.
With RRIRQRPPRLPRPRPRPSIQPRP the figure was -0.13; with RRIRMRPPRLPRPRPRPRHYPRP, -0.0487; with RRIRSRPPRLPRPRPRPDWKPRP, -0.0322.
In the case of RRIRMRPPRLPRPRPRPHTWPRP it was -0.0904; in that of RRIRMRPPRLPRPRPRPKNKPRP, 0.408.
In the case of RRIRQRPPRLPRPRPRPWHNPRP it was -0.385.
Take RRIRIRPPRLPRPRPRPHRQPRP: the “shrunken log2 fold change” value was -0.152.
RRIRERPPRLPRPRPRPHDFPRP: the “shrunken log2 fold change” value is -0.0616.
In the case of RRIRMRPPRLPRPRPRPICLPRP it was -0.322.
In the case of RRIRARPPRLPRPRPRPPWKPRP it was 0.429.
In the case of RRIRHRPPRLPRPRPRPINNPRP it was -0.7; in that of RRIRMRPPRLPRPRPRPTWWPRP, 0.596.
Consider RRIRGRPPRLPRPRPRPCQQPRP, for which the “shrunken log2 fold change” value is 0.0696.
With RRIRERPPRLPRPRPRPEPRPRP the figure was 0.379; with RRIRSRPPRLPRPRPRPKESPRP, 0.284.
With RRIRPRPPRLPRPRPRPRCCPRP the figure was 0.119; with RRIRARPPRLPRPRPRPERFPRP, 0.0769; with RRIRSRPPRLPRPRPRPAMEPRP, -0.0044.
In the case of RRIRYRPPRLPRPRPRPVWHPRP it was -0.0131; in that of RRIRVRPPRLPRPRPRPSLDPRP, -0.0324; in that of RRIRWRPPRLPRPRPRPYPLPRP, -0.0066.
Take RRIRNRPPRLPRPRPRPTRWPRP: the “shrunken log2 fold change” value is 0.292.
RRIRRRPPRLPRPRPRPLNKPRP: the “shrunken log2 fold change” value is 0.0514.
With RRIRARPPRLPRPRPRPTEYPRP the figure was -0.103; with RRIRKRPPRLPRPRPRPELHPRP, 0.0814.
With RRIRERPPRLPRPRPRPITYPRP the figure was -0.546.
With RRIRLRPPRLPRPRPRPAETPRP, the “shrunken log2 fold change” value was 0.0382.
As for RRIRDRPPRLPRPRPRPQMMPRP, the “shrunken log2 fold change” value is -0.211.
With RRIRRRPPRLPRPRPRPMITPRP the figure was -0.172.
With RRIRLRPPRLPRPRPRPVGLPRP the figure was 0.144.
With RRIRARPPRLPRPRPRPKKYPRP the figure was -0.232; with RRIRPRPPRLPRPRPRPLYFPRP, -0.602; with RRIRYRPPRLPRPRPRPMTKPRP, 0.0153.
Take RRIRFRPPRLPRPRPRPIKVPRP: the “shrunken log2 fold change” value was -0.379.
With RRIRCRPPRLPRPRPRPFCMPRP the figure was 0.174.
With RRIRHRPPRLPRPRPRPARCPRP the figure was 0.252.
With RRIRHRPPRLPRPRPRPKVPPRP the figure was 0.0497; with RRIRDRPPRLPRPRPRPFRFPRP, -0.0342; with RRIRPRPPRLPRPRPRPFACPRP, -0.0209.
Consider RRIRRRPPRLPRPRPRPPQKPRP, for which the “shrunken log2 fold change” value was 1.31.
In the case of RRIRERPPRLPRPRPRPGKRPRP it was 0.093; in that of RRIRTRPPRLPRPRPRPWQEPRP, 0.0948; in that of RRIRHRPPRLPRPRPRPCGYPRP, -0.0081.
In the case of RRIRNRPPRLPRPRPRPMKTPRP, the “shrunken log2 fold change” value was -0.0393.
On to RRIRDRPPRLPRPRPRPYRPPRP, for which the “shrunken log2 fold change” value was -0.00509.
In the case of RRIRNRPPRLPRPRPRPWNYPRP it was -0.101; in that of RRIRCRPPRLPRPRPRPHWYPRP, -0.714.
With RRIRQRPPRLPRPRPRPFPFPRP the figure was -0.00711; with RRIRWRPPRLPRPRPRPAGPPRP, 0.235; with RRIRCRPPRLPRPRPRPWFFPRP, -0.24.
In the case of RRIRIRPPRLPRPRPRPECNPRP it was -0.324; in that of RRIRARPPRLPRPRPRPDNAPRP, 0.311; in that of RRIRSRPPRLPRPRPRPASAPRP, 0.243.
In the case of RRIRARPPRLPRPRPRPSRGPRP, the “shrunken log2 fold change” value stood at 0.497.
In the case of RRIRKRPPRLPRPRPRPWMPPRP it was 0.0548; in that of RRIRRRPPRLPRPRPRPTCMPRP, 0.315.
In the case of RRIRPRPPRLPRPRPRPELYPRP it was 0.0891; in that of RRIRLRPPRLPRPRPRPWPCPRP, 0.209.
In the case of RRIRFRPPRLPRPRPRPFVDPRP it was -0.121; in that of RRIRFRPPRLPRPRPRPGWTPRP, -0.115; in that of RRIRARPPRLPRPRPRPTAQPRP, 0.936.
In the case of RRIRTRPPRLPRPRPRPPCAPRP, the “shrunken log2 fold change” value amounted to 0.308.
In the case of RRIRRRPPRLPRPRPRPVCCPRP it was 0.158; in that of RRIRQRPPRLPRPRPRPYPQPRP, -0.00227.
In the case of RRIRNRPPRLPRPRPRPNNEPRP it was -0.208; in that of RRIRRRPPRLPRPRPRPSLFPRP, 0.196; in that of RRIRKRPPRLPRPRPRPKMLPRP, 0.185.
